# Experimental data published in article PMC11573651.
# Target: His-NifH^RS (Roseiflexus sp. RS-1 dinitrogenase reductase NifH) (Roseiflexus sp. RS-1)
# Experiment: not stated; molecular size and quaternary structure of the purified protein (Table 1); the method is in SI Appendix Figs. S8, S9, S14 and S15
substance,measurement,value
His-NifH^RS (Roseiflexus sp. RS-1 dinitrogenase reductase NifH) (natural protein),stoichiometry N,2
